B1: EYFP^C-CsACD2 (other)
chain: MAVNHLCQWQYLRFQLSHPSAPACRYLSPSRPKSSTSSTAKVNCSAAPSSSPMDSHNEGRKKFMEFPYASGPVRQLMVDLVSTVENTLDSQLLPCTLPPDVQYYENQNGTAQASLQIRSGLKSSLIDFILGSWVHSELPTGAALNITSLSAYLNSSTDAPNLLIELIQSSPTSLVLILDLPPRKDLVLHPDYLHTFYESTRLDEYRQMLEKVPEVRPYFSSSLYLRCVVSPSAIMVRVDTETETGAGESTRLDYIITNHVHPVAKQVIGIWLNQCACGGRHVGESDKAYLEKRDGLIKNKTIEIDLGSSFPRLFGPQVASRVLGEIQKVFTA
notes: not shown: C-terminal fragment of EYFP (pSAT6-cEYFP-C1-B) and its linker

Legend:
[1] = target: SDE15-EYFP^N ([…]_04025 without signal peptide fused to the N-terminal fragment of EYFP) (Ca. liberibacter asiaticus); assay: BiFC in citrus leaf protoplasts (FIG. 10B)
[2] = target: B1; assay: BiFC in citrus leaf protoplasts
[3] = target: EYFP^C-SDE15 ([…]_04025 without signal peptide fused to the C-terminal fragment of EYFP) (Ca. liberibacter asiaticus); assay: BiFC in citrus leaf protoplasts (FIG. 10B)

| Binder | binding result [1] | binding result [2] | binding result [3] |
| --- | --- | --- | --- |
| B1 | binds | – | – |
| CsACD2-EYFP^N (other, not shown: N-terminal fragment of EYFP (pSAT6-nEYFP-C1) and its linker) MAVNHLCQWQYLRFQLSHPSAPACRYLSPSRPKSSTSSTAKVNCSAAPSSSPMDSHNEGRKKFMEFPYASGPVRQLMVDLVSTVENTLDSQLLPCTLPPDVQYYENQNGTAQASLQIRSGLKSSLIDFILGSWVHSELPTGAALNITSLSAYLNSSTDAPNLLIELIQSSPTSLVLILDLPPRKDLVLHPDYLHTFYESTRLDEYRQMLEKVPEVRPYFSSSLYLRCVVSPSAIMVRVDTETETGAGESTRLDYIITNHVHPVAKQVIGIWLNQCACGGRHVGESDKAYLEKRDGLIKNKTIEIDLGSSFPRLFGPQVASRVLGEIQKVFTA | – | no binding | binds |

Reference: US12365912 (UNIVERSITY OF FLORIDA RESEARCH FOUNDATION, dated 2025)
